Drawing on PMC8552724, this text covers binding for one sequence.

This data set has as its system T1, AbrB (Bacillus thuringiensis (HD73?)), ORF:5acdf31f.
T1 sequence: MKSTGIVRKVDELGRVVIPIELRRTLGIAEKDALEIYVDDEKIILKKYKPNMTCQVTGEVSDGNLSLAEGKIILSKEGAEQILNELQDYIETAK
Nature of the data set: EMSA. (In general: A gel shift assay detects complexes by their altered migration in electrophoresis.)

For “CATCCGTTAAAGGAAGCATGAATTAGTAATGAATTTGCAATTTCGATAAAAGTTTGTAATATTTCATTTTATGGACATACTTCATCTAGATCACTTTGTAATAGAATATTTCCTTTTATATACAATTAAACCACATTTATCCTTCGTGAAATGTTTATATATTAAATAATATAAAAAAATATAGGGTGTTATAATTAATTCGAAAACGTTTACAAAAAGAATGATGGAGGGATAATT (double strand) [Psip1Ab1-S (-201 to +36)]”, the binding result is reported as “binds”.
